Experimental data published in publication PMC8213127.

Key:
[1] = target: SctV from Yersinia enterocolitica (Yersinia enterocolitica); test: cryo-EM structure; purified full-length protein at 0.8-1 mg/ml in TBS with 0.01% LMNG; single particle analysis in Relion; C9 symmetry imposed for Vp-FlhA, D9 for Ye-SctV; only the cytoplasmic domain resolved
[2] = target: FlhA from the lateral flagella of Vibrio parahaemolyticus (Vibrio parahaemolyticus); test: as above

SctV from Yersinia enterocolitica (natural protein)
stoichiometry N [1]: 9

FlhA from the lateral flagella of Vibrio parahaemolyticus (natural protein)
stoichiometry N [2]: 9
